Laboratory results as given in the DeepSol protein solubility set.

Experiment: soluble on expression in E. coli; label from the status in PepcDB or PDB records

Sequence	soluble on expression in E. coli
MKIISAEQVHQNLNFEELIPLLKQSFSRPFSMPQRQVYSLAPEQSENHDAFALLPSWNEEVIGNKAFTYFPDNAKKHDLPGLFSKIMLFKRQTGEPLALVDGTSVTYWRTAAISALASQLLSRKNSQHLMLFGTGNLASYLVKAHLTVRDIKQVTLWGRNAKKVSKLIADFSILYPAVTFKTSVDVNAEVASADIICCATGAKTPLFDGNSVSAGCHIDCLGNHMTDARECDTTTILRARVFVDSLTNTLNEAGELLIPMAEDAFNKDEIVGELADMCKTPSMLRQSSDEITLFKSVGTAISDLVAAHSVVEKLAD	not soluble
GLEAVRKRPGMYIGSTSERGLHHLVWEIVDNSIDEALAGYANQIEVVIEKDNWIKVTDNGRGIPVDIQEKMGRPAVEVILTSSVVNALSQDLEVYVHRNETIYHQAYKKGVPQFDLKEVGTTDKTGTVIRFKADGEIFTETTVYNYETLQQRIRELAFLNKGIQITLRDERDEENVREDSYHYE	soluble
GPGSMFTPSTRFLCSARPLLWFGRRGVFAAPHPEKAKTGGEDAFVVHTSGIGVADGVGGYASYGVDPGVYTRNVMKHTLRALQEDDNRGTIGALQALTYGYTEAQKLKQPGGCPVTLVTLLDGRFASVLNLGDCGTICLRSSKLFFATEPQQHSFNCPYQLPEDPPSVGDRTTLEVSEGDVFLCASDGLLDNVDMSDILRHLDAVNRDGCQRVAENLVACACRNGANKGFDSPFAKQARAVGYHYMGGKQDDVTVVVAQLTRGTVAPDDCPSLITELLDVHKT	not soluble
MHSFLQFLRDDNPGSLEDHLNFVPSDDLKYELGMLLSSRPLYLETDELPFVSSSVLNYGIKSSVFVVSAGEHSDSVNDEISSRILMMLQRYESRLEEPVVEYLSSDDNYSFFSVTALFFMDMVRLCIKWDKNSGEFSLDE	not soluble
AHHHHHHGSGRFKKVPSSLCPMKKPGDVLREILQEKGIKSVGTLSRKWPSGRDIYQELALLLLEGDGAIVELREETAESWDLNGKKVGPSKYAYVRPCFVEKFKVIVDGSEIAKRLPDYPWIIVDLTFWNRHIPKEKDKVALQLRETYAVVRRMYYPRRFAITWVNEEFKKKNKVPLEKVVSYEGSTADFLREKGINRVVLLDPNAEEVLSREDLQERAFIIGGIVDMKGDKKGTTAKIGEVLEKEGIDVLRRKIVLRGDIVGVPDRINHIAEILLRMLYGEDMEKAILAVQAPTHARWRLRKEIPKRKIRYLIDGKLYLVVEKELYDELKQWLNIRWEDFVKVLRETGMVALERRRIHHLNKISVFRFDKSGGKRVILLKRAALLCYNC	soluble
MGSDKIHHHHHHMSSILRLDRLRQFIGELATLLDSRPDESTLLAQAHPLLAELVHQDDWLPEDCARPDPQRYQQYLLHVDSRQRFSVVSFVWGPGQITPVHDHRVWGLIGMLRGAEYSQPYAFDAGGRPHPSGARRRLEPGEVEALSPRIGDVHQVSNAFSDRTSISIHVYGANIGAVRRAVFSAEGEEKPFISGYSNSRLPNIWDLSKENPA	not soluble
MGHHHHHHSHMGYIYIVSFGDVEDRLLLADASNVKEIFDLEVRVSTVKADIEEAYNPQRNQYHAGTILSYLSRVVYPDMVRLVALVSFDLYEEGLNFVFGEAQYGGKYAVVSTYRLYHPDERVFFERVFKETNHELGHTFGLKHCPDPYCVMSFSNSIDEVDRKSRDFCPNCRRKLDYVLSYYR	not soluble
METRREERIGQLLQELKRSDKLHLKDAAALLGVSEMTIRRDLNNHSAPVVLLGGYIVLEPRSASHYLLSDQKSRLVEEKRRAAKLAATLVEPDQTLFFDCGTTTPWIIEAIDNEIPFTAVCYSLNTFLALKEKPHCRAFLCGGEFHASNAIFKPIDFQQTLNNFCPDIAFYSAAGVHVSKGATCFNLEELPVKHWAMSMAQKHVLVVDHSKFGKVRPARMGDLKRFDIVVSDCCPEDEYVKYAQTQRIKLMYLEHHHHHH	soluble
MIQQESRLKVADNSGAREVLVIKVLGGSGRRYANIGDVVVATVKDATPGGVVKKGQVVKAVVVRTKRGVRRPDGSYIRFDENACVIIRDDKSPRGTRIFGPVARELRDKDFMKIISLAPEVI	soluble
